Measurements published in publication PMC10157491.

Target: T1, His6-NhaR (Escherichia coli MG1655?) (UniProt P0A9G2)
T1 sequence: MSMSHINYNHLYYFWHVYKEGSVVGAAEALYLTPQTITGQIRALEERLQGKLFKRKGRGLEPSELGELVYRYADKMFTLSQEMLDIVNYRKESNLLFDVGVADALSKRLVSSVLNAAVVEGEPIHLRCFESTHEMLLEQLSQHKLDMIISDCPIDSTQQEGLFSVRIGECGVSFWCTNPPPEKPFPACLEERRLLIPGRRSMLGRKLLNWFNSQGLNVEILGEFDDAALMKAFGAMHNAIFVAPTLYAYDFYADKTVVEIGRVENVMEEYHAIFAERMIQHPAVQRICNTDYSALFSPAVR
Assay: EMSA
Conditions: NhaR EMSA: 20 mM Tris-HCl pH 8.0, 100 mM NaCl, 1 mM DTT, 10% glycerol, 125 ug/mL BSA, 10 ng DNA in 10 uL, 25 C 20 min; Fis: 10 mM Tris-HCl pH 8.0, 150 mM NaCl …

Sequence | binding
CAATTAAATCCGTGAGTGCCGTAGCGCAGCCTTTCATCAGGACTTTCGAAAAATCCGAAATCATGCATCGGAATTTACTGATTTAATTATTTTAATCCTAATTTATTTTGAAAAAGGCATTGGGATTTATGCCGTATTCCTGAAGA (double strand) [PpgaA] | binds
CCCGGTAATCTATTGTGGGAATTTAATTTAAGTGCAGAAGTAATATTTTCGCCGGATTTTATTCGGAATATCCTGCTTATCCTCGTGCTGTTTCTCACGTAGTCTATAATTTCCTTTTTAAGCCCACAGGAGAGCAAC (double strand) [PosmC] | binds
CCGTCAAAAACGCATCTCACCGCTGATGGCGCAAATTCTTCAATAGCTCGTAAAAAACGAATTATTCCTACACTATAATCTGATTTTAACGATGATTCGTGCGGGGTAAAATAGTAAAAACGATCTATTCACCTGAAAGAGAAATAAAAAGTGAAACATCTGCATCGATTCTTTAGCAGTGATGCCTCGGGA (double strand) [PnhaA] | binds
